{"source": "patent US20070202121A1", "about": "(University of California, published 2007)", "molecular_target": "T1, H-2 D^b MHC class I molecule (mouse, UniProt P01887 21-119; P01899 25-362, limits assumed)", "T1 construct": "whole, on cells", "T1 sequence (MHC heavy, looked up)": "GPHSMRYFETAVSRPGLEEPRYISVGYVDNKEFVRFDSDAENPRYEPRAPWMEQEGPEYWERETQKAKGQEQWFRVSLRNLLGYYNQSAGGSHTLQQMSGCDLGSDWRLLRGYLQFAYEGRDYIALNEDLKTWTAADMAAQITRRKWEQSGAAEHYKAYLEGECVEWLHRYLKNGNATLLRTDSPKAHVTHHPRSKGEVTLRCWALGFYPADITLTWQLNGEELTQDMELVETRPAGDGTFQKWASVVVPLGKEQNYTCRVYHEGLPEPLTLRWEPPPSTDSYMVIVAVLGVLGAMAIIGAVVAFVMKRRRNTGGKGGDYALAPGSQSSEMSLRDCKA", "T1 sequence (b2m, looked up)": "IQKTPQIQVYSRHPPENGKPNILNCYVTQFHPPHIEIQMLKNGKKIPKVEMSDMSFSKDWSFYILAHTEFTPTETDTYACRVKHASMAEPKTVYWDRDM", "test": "synthetic peptide pulsed on L cells expressing H-2 D^b, read by T cell hybridoma activation", "data": [{"binder": "STHVNHLHC (Encoded by nucleotides 730 to 756 of the SPAS-1 (T) cDNA from TRAMP-C2 tumor cells)", "note": "[SPAS-1 peptide STHVNHLHC]", "values": [{"measurement": "binding result", "result": "binds"}]}]}
